B1: Recombinant Human Matriptase/ST14 Catalytic Domain (protein)
chain: not shown
cleavage ratio (PAR) on peptide array, human MT-SP1 500 nM (SEQ ID NO 18002): showed higher cleavage ratios than the sequence shown as SEQ ID NO: 3 for both the cleavages by human uPA and human MT-SP1
cleavage ratio (PAR) on peptide array, human MT-SP1 500 nM (SEQ ID NO 18000): showed higher cleavage ratios than the sequence shown as SEQ ID NO: 3 for both the cleavages by human uPA and human MT-SP1
cleavage ratio (PAR) on peptide array, human MT-SP1 500 nM (SEQ ID NOs: 5-17201): showed higher cleavage ratios than the sequence shown as SEQ ID NO: 2 for both the cleavages by human uPA and human MT-SP1
cleavage ratio (PAR) on peptide array, human MT-SP1 500 nM (SEQ ID NO 17999): showed higher cleavage ratios than the sequence shown as SEQ ID NO: 3 for both the cleavages by human uPA and human MT-SP1
cleavage ratio (PAR) on peptide array, human MT-SP1 500 nM (SEQ ID NO 17996): showed higher cleavage ratios than the sequence shown as SEQ ID NO: 3 for both the cleavages by human uPA and human MT-SP1
cleavage ratio (PAR) on peptide array, human MT-SP1 500 nM (SEQ ID NO 18001): showed higher cleavage ratios than the sequence shown as SEQ ID NO: 3 for both the cleavages by human uPA and human MT-SP1
cleavage ratio (PAR) on peptide array, human MT-SP1 500 nM (SEQ ID NO 17997): showed higher cleavage ratios than the sequence shown as SEQ ID NO: 3 for both the cleavages by human uPA and human MT-SP1
cleavage ratio (PAR) on peptide array, human MT-SP1 500 nM (SEQ ID NO 17995): showed higher cleavage ratios than the sequence shown as SEQ ID NO: 3 for both the cleavages by human uPA and human MT-SP1
cleavage ratio (PAR) on peptide array, human MT-SP1 500 nM (SEQ ID NO 17994): showed higher cleavage ratios than the sequence shown as SEQ ID NO: 3 for both the cleavages by human uPA and human MT-SP1
cleavage ratio (PAR) on peptide array, human MT-SP1 500 nM (SEQ ID NO 18003): showed higher cleavage ratios than the sequence shown as SEQ ID NO: 3 for both the cleavages by human uPA and human MT-SP1
cleavage ratio (PAR) on peptide array, human MT-SP1 500 nM (SEQ ID NO 17998): showed higher cleavage ratios than the sequence shown as SEQ ID NO: 3 for both the cleavages by human uPA and human MT-SP1
cleavage ratio (PAR) on peptide array, human MT-SP1 500 nM (SEQ ID NOs: 17202-17993): showed higher cleavage ratios than the sequence shown as SEQ ID NO: 3 for both the cleavages by human uPA and human MT-SP1

Source: patent publication US20220315909
